The record followed here is paper PMC10786891, “Massively parallel profiling of RNA-targeting CRISPR-Cas13d”.

B1: target 1 insC 3' of 22,insU 3' of 18 (mixed)
RNA 1: CACCCGUGCAAAAAUGCAGGGGUCUAAAACUGAGCGGAUAACCUCUCUAUGG
RNA 2: GGGAAUGGAUCCACAUCUACGAAUUCGUACCCAUAUGAGAGGUUAUCCGCUCACCGAGAUCGGAAGAGCACACGU
B2: target 1 insG 3' of 19,insG 3' of 16 (mixed)
RNA 1: B1 RNA 1
RNA 2: B1 RNA 2 with C32A, A33U, U34G, U36G, G37A, A38G
B3: target 1 G5C,U8G (mixed)
RNA 1: B1 RNA 1
RNA 2: GGGAAUGGAUCCACAUCUACGAAUUCGUACCAUAGAGAGGUUAGCCCCUCACCGAGAUCGGAAGAGCACACGU
B4: target 1 insU 3' of 9 (mixed)
RNA 1: B1 RNA 1
RNA 2: GGGAAUGGAUCCACAUCUACGAAUUCGUACCAUAGAGAGGUUAUUCCGCUCACCGAGAUCGGAAGAGCACACGU
B5: target 1 A9G,U19A (mixed)
RNA 1: B1 RNA 1
RNA 2: B3 RNA 2 with U33A, A43G, G44U, C47G
B6: target 1 insG 3' of 22,insU 3' of 4 (mixed)
RNA 1: B1 RNA 1
RNA 2: GGGAAUGGAUCCACAUCUACGAAUUCGUACGCAUAGAGAGGUUAUCCGCUUCACCGAGAUCGGAAGAGCACACGU
B7: target 1 insU 3' of 18 (mixed)
RNA 1: B1 RNA 1
RNA 2: B4 RNA 2 with G35U, A36G, G37A, A38G, G39A, U41G, A43U, U44A
B8: target 1 insG 3' of 8,insG 3' of 3 (mixed)
RNA 1: B1 RNA 1
RNA 2: GGGAAUGGAUCCACAUCUACGAAUUCGUACCAUAGAGAGGUUAUGCCGCUGCACCGAGAUCGGAAGAGCACACGU
B9: target 1 insC 3' of 22,insC 3' of 9 (mixed)
RNA 1: B1 RNA 1
RNA 2: B6 RNA 2 with G31C, U45C, C46U, G48C, C49G, U50C
B10: target 1 C2U,A9C (mixed)
RNA 1: B1 RNA 1
RNA 2: B3 RNA 2 with A43C, G44U, C47G, C50U
B11: target 1 insA 3' of 10 (mixed)
RNA 1: B1 RNA 1
RNA 2: B4 RNA 2 with U44A
B12: target 1 insA 3' of 22,insA 3' of 11 (mixed)
RNA 1: B1 RNA 1
RNA 2: B1 RNA 2 with C31A, U36G, G37A, A38G, G39A, A40G, G42U, U43A
B13: target 1 insC 3' of 12,insA 3' of 4 (mixed)
RNA 1: B1 RNA 1
RNA 2: B8 RNA 2 with U41C, A43U, U44A, G45U, U50A, G51U
B14: target 1 insA 3' of 21,insC 3' of 15 (mixed)
RNA 1: B1 RNA 1
RNA 2: B1 RNA 2 with C32A, U36G, G37A, A38G, G39C
B15: target 1 insA 3' of 17,insA 3' of 10 (mixed)
RNA 1: B1 RNA 1
RNA 2: GGGAAUGGAUCCACAUCUACGAAUUCGUACCAUAGAAGAGGUUAAUCCGCUCACCGAGAUCGGAAGAGCACACGU
B16: target 1 insA 3' of 7,insU 3' of 2 (mixed)
RNA 1: B1 RNA 1
RNA 2: B8 RNA 2 with G45C, C46A, G51C, C52U
B17: target 1 U3G,U11G (mixed)
RNA 1: B1 RNA 1
RNA 2: B3 RNA 2 with U41G, G44U, C47G, U49G
B18: target 1 U3C,A14G (mixed)
RNA 1: B1 RNA 1
RNA 2: B3 RNA 2 with A38G, G44U, C47G, U49C
B19: target 1 C6A,G12C (mixed)
RNA 1: B1 RNA 1
RNA 2: B3 RNA 2 with G40C, G44U, C46A, C47G
B20: target 1 insG 3' of 21,insA 3' of 21 (mixed)
RNA 1: B1 RNA 1
RNA 2: B1 RNA 2 with C32G, U34A, A35U, U36A
B21: target 1 insG 3' of 11,insU 3' of 2 (mixed)
RNA 1: B1 RNA 1
RNA 2: B8 RNA 2 with U42G, A43U, U44A, G45U, G51C, C52U
B22: target 1 U8G,A9U (mixed)
RNA 1: B1 RNA 1
RNA 2: B3 RNA 2 with A43U, C47G
B23: target 1 U8A,A18G (mixed)
RNA 1: B1 RNA 1
RNA 2: B3 RNA 2 with A34G, G44A, C47G
B24: target 1 G12C,G15U (mixed)
RNA 1: B1 RNA 1
RNA 2: B3 RNA 2 with G37U, G40C, G44U, C47G
B25: target 1 insC 3' of 5,insG 3' of 2 (mixed)
RNA 1: B1 RNA 1
RNA 2: B8 RNA 2 with G45C, C47G, G48C, G51C, C52G
B26: target 1 C7U,A16C (mixed)
RNA 1: B1 RNA 1
RNA 2: B3 RNA 2 with A36C, G44U, C45U, C47G
B27: target 1 insA 3' of 12,insA 3' of 6 (mixed)
RNA 1: B1 RNA 1
RNA 2: B15 RNA 2 with A37G, G38A, A39G, G41A, A45U, U46C, C48A

Residue numbers refer to the chain shown, from its start. In names and notes the source's numbering stands.

The data set addresses T1, EsCas13d, nuclease-dead (Eubacterium siraeum, UniProt B0MS50, R295A;H300A;R849A;H854A).
T1 sequence: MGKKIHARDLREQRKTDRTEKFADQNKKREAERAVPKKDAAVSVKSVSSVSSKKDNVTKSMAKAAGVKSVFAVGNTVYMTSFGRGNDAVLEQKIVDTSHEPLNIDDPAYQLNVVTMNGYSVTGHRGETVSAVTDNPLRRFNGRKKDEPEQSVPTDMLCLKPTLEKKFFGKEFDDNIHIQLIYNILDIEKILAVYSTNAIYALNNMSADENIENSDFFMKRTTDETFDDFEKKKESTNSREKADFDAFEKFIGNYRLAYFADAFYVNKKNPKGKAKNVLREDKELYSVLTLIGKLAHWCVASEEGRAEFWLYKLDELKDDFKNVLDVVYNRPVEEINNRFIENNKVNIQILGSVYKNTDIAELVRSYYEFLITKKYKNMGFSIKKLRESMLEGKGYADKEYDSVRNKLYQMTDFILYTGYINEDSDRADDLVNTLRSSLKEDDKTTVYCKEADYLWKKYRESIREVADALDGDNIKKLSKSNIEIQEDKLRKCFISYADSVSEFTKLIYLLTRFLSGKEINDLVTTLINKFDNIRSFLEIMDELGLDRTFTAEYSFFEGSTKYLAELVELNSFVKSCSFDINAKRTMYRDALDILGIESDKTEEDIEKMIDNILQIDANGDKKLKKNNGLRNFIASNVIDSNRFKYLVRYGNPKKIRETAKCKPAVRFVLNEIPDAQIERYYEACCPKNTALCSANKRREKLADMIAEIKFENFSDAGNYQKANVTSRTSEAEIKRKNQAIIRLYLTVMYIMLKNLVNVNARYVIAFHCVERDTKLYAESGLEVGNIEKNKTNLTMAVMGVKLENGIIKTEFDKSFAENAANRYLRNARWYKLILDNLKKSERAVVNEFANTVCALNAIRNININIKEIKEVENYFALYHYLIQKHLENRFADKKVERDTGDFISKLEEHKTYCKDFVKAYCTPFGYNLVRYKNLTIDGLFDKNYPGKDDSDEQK
As to the kind of experiment: crRNA (strand 1, pre-loaded); Mg2+; 40 mM Tris-HCl pH 7.5, 150 mM NaCl, 6 mM MgCl2, 1 mM DTT, 0.1% Tween-20, 0.2 mg/ml BSA; 25 C; 10 min per concentration, then washed. As to conditions: tags: His6-TwinStrep-SUMO cleaved; N-terminal SNAP kept (SNAP-Surface 488); label: 3' end held by stalled T7 RNA polymerase.
B1: the dissociation constant (Kd) (usually the equilibrium constant for the complex coming apart) came out at 38 ± 9 nM. With B2 the figure was 97 ± 16 nM; with B3, 35 ± 4 nM.

B4 showed a Kd of 13.1 ± 0.9 nM. With B5 the figure was 44 ± 5 nM. As for B6, the figure is 32 ± 5 nM. Consider B7, for which the dissociation constant (Kd) is 31 ± 3.2 nM. B8: the dissociation constant Kd is 7.7 ± 0.4 nM. As for B9, binding was put at a Kd of 50 ± 13 nM. As for B10, the figure is 14.2 ± 0.5 nM. The molecule B11 showed an equilibrium dissociation constant (Kd) of 12 ± 0.5 nM. With B12 the figure was 17.6 ± 1 nM; with B13, 7 ± 0.7 nM. Consider B14, for which binding was put at a Kd of 55 ± 11 nM.

In turn, B15 had a Kd of 19.2 ± 1.7 nM. As for B16, the figure is 7.5 ± 0.6 nM; as for B17, 11.7 ± 0.9 nM; as for B18, 57 ± 18 nM. In the case of B19, binding was characterised by a dissociation constant (Kd) of 14.8 ± 0.5 nM. As for B20, the figure is 27.3 ± 3.5 nM; as for B21, 50 ± 9 nM. With B22 the figure was 11.4 ± 0.4 nM. With B23 the figure was 72 ± 16 nM; with B24, roughly 60 nM; with B25, 10 ± 0.5 nM.

B26 gave a dissociation constant (Kd) of 43 ± 4 nM. With B27, the affinity, expressed as Kd, was 37.3 ± 3 nM.
